Residue numbers refer to the chain shown, from its start.
T1: N88A
T1 construct: also called hCD27 N88A
T1 receptor: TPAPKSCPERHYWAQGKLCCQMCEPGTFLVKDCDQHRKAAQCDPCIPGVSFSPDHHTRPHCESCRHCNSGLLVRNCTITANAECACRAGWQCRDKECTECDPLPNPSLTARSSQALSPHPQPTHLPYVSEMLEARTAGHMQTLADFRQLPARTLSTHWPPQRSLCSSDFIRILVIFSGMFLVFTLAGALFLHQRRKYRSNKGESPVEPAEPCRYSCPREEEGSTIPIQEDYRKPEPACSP

T2: Q41A
T2 construct: also called hCD27 Q41A
T2 receptor: T1 receptor with Q41A, A88N

T3: K17A
T3 construct: also called hCD27 K17A
T3 receptor: T1 receptor with K17A, A88N

T4: I46A
T4 construct: also called hCD27 I46A
T4 receptor: T1 receptor with I46A, A88N

T5: Q91A
T5 construct: also called hCD27 Q91A
T5 receptor: T1 receptor with A88N, Q91A

T6: R93A
T6 construct: also called hCD27 R93A
T6 receptor: T1 receptor with A88N, R93A

T7: D32A
T7 construct: also called hCD27 D32A
T7 receptor: T1 receptor with D32A, A88N

T8: S63A
T8 construct: also called hCD27 S63A
T8 receptor: T1 receptor with S63A, A88N

T9: V30A
T9 construct: also called hCD27 V30A
T9 receptor: T1 receptor with V30A, A88N

T10: R37A
T10 construct: also called hCD27 R37A
T10 receptor: T1 receptor with R37A, A88N

B1: Antibody hCD27.131A (mouse parental 131A) (antibody, V domains shown)
VH: QIQLVQSGPELKKPGETVKISCKASGYTFTNYGMNWVKQAPGKGLKWMGWINTNTGEPTYAEEFKGRFAFSLETSATTAYLQINNLKNEDTATYFCAREGDAMDYWGQGTSVTVSS
VL: QIVLTQSPAIMSASPGEKVTMTCSASSSVSYMHWYQQKSGTSPKRWIYDTSKLASGVPARFSGSGSGTSYSLTISSMEAEDAATYYCQQWNSYPFTFGSGTKLEIK
notes: mouse IgG1; also called mouse hCD27.131A

Legend:
Test in all cases: flow cytometry, CHO-K1; sub-column 1 of 2
N88A = target: T1, N88A
Q41A = target: T2, Q41A
K17A = target: T3, K17A
I46A = target: T4, I46A
Q91A = target: T5, Q91A
R93A = target: T6, R93A
D32A = target: T7, D32A
S63A = target: T8, S63A
V30A = target: T9, V30A
R37A = target: T10, R37A

Molecule	% of WT hCD27 binding (geo mean FITC) (N88A) [%]	% of WT hCD27 binding (geo mean FITC) (Q41A) [%]	% of WT hCD27 binding (geo mean FITC) (K17A) [%]	% of WT hCD27 binding (geo mean FITC) (I46A) [%]	% of WT hCD27 binding (geo mean FITC) (Q91A) [%]	% of WT hCD27 binding (geo mean FITC) (R93A) [%]	% of WT hCD27 binding (geo mean FITC) (D32A) [%]	% of WT hCD27 binding (geo mean FITC) (S63A) [%]	% of WT hCD27 binding (geo mean FITC) (V30A) [%]	% of WT hCD27 binding (geo mean FITC) (R37A) [%]
1A4 (mouse IgG1) (antibody)	154	106	32.4	129	146	120	43.7	158	161	115
9F4 (mouse IgG2a) (antibody)	153	113	98	137	149	122	118	153	166	35
B1	162	108	103	132	148	125	113	162	170	50.3
